# Measured values as given in publication PMC10866687.
# Biological target: GFP-tagged Tks5 (GFP-Tks5), in 293T cells
# Experiment: coimmunoprecipitation (IP FLAG, immunoblot quantification)
# Conditions: n = 4 experiments, parent: est. 100, read off a plot
row,Substance,percent of parent [% WT]
1,FLAG-MAP1B-LC1 (wild type) (from UniProt P46821) K41A; P42A,120
2,FLAG-MAP1B-LC1 (wild type) (from UniProt P46821) P145A; P146A,130
3,FLAG-MAP1B-LC1 (wild type) (from UniProt P46821) P66A; K67A; P68A,70
4,FLAG-MAP1B-LC1 (wild type) (from UniProt P46821) P6A; R7A,120
5,FLAG-MAP1B-LC1 (wild type) (from UniProt P46821) K95A; P96A,110
6,FLAG-MAP1B-LC1 (wild type) (from UniProt P46821) K60A; P61A,78
